From patent US6710030 (dated 2004)
“And” between values parts separate entries of the source, which are not always exact repeats. Identical values can stand only once.

Assays:
[1] = target: canine platelet (GP)IIb/IIIa on canine platelets (canine, UniProt Q9TUN8 32-1036; A0A8I3PMU9 158-919)
[2] = target: T1, human platelet membrane glycoprotein (GP)IIb/IIIa (fibrinogen receptor, integrin αIIbβ3) on human platelets (human, UniProt P08514 32-1039; P05106 27-788)
[3] = target: T1, human platelet membrane glycoprotein …; test: Scatchard analysis of CN binding to unactivated human platelets

B1: contortrostatin (CN), homodimeric disintegrin purified from Agkistrodon contortrix contortrix (south (ligand)
chain: DAPANPCCDAATCKLTTGSQCADGLCCDQCKFMKEGTVCRRARGDDLDDYCNGISAGCPRNPFHA
notes: also called CTTX
Which IC50 [1] does the source give for B1 here?
The IC50 was 0.24 mg/L.

And the IC50 [2]?
Its IC50 is 25 nM and 0.4 µg/mL.

And the Kd [3]?
Its Kd is 0.037 µM.
